Here are results for two molecules from PMC4802042.

Assay [1] concerns the target double-phosphorylated JNK1 (phospho-JNK1) (human).
Assay [2] has the same target. This is another data set of the same source.

B1: MKP5 catalytic domain (MKP5-CD, residues 320-467) (domain or fragment)
chain: AELTPILPFLFLGNEQDAQDLDTMQRLNIGYVINVTTHLPLYHYEKGLFNYKRLPATDSNKQNLRQYFEEAFEFIEEAHQCGKGLLIHCQAGVSRSATIVIAYLMKHTRMTMTDAYKFVKGKRPIISPNLNFMGQLLEFEEDLNNGVT
On to B1, for which, in assay [1], the Km of MKP5-CD for pJNK1 substrate, relative to that of MKP7-CD worked out at 20 fold.

B2: MKP7-CD (F285A) (domain or fragment)
chain: NIGPTRILPNLYLGCQRDVLNKELMQQNGIGYVLNASNTCPKPDFIPESHFLRVPVNDSFCEKILPWLDKSVDFIEKAKASNGCVLVHCLAGISRSATIAIAYIMKRMDMSLDEAYRFVKEKRPTISPNANFLGQLLDYEKKIKNQ
Molecule B2 registered a phosphatase activity for JNK1 dephosphorylation, relative to wild-type MKP7-CD (Fig. 4a) in assay [2] of 10 fold.
